Consider two molecules from patent EP4538294A1 (Shandong Simcere Biopharmaceutical Co., Ltd., dated 2025).

For orientation: EC50 means the concentration that produces a half-maximal response.

Experiment [1] has as its target T1, human CD3 on Jurkat cells and on activated human PBMC (human, UniProt P07766 23-207; P04234 22-171).
T1 construct: whole, on cells; Endogenous CD3 of the T cell receptor complex on cells
Briefly: FACS, Jurkat cells.

Experiment [2] addresses T2, human BCMA on Flp-inCHO-human BCMA cells (human, UniProt Q02223 1-184).
T2 construct: whole, on cells
T2 sequence (looked up): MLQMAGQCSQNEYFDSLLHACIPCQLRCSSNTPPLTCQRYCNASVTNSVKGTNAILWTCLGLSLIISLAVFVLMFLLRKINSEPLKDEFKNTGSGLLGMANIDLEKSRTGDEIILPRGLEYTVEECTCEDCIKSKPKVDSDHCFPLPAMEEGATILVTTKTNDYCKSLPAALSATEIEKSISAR
Briefly: FACS, Flp-inCHO-human BCMA cells. A general note: Flow cytometry measures light scatter and fluorescence of single cells or particles in a stream.

Experiment [3] addresses T1, human CD3 on Jurkat cells and on …. The experiment in a line: FACS, activated human PBMC.
Experiment [4] deals with T3, monkey CD3 on activated monkey PBMC (monkey).
T3 construct: whole, on cells
T3 sequence (Q95LI5 22-198): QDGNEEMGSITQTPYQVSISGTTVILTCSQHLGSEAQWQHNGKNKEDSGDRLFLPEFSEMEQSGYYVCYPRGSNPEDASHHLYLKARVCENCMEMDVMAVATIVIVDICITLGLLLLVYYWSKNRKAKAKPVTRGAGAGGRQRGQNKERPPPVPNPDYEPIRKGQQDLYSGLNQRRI
Briefly: FACS, activated monkey PBMC.

Experiment [5] concerns the target T4, human GPRC5D on CHOK1-human GPRC5D cells (human, UniProt Q9NZD1 1-345).
T4 construct: whole, on cells
The experiment in a line: FACS, CHOK1-human GPRC5D cells.

The target of experiment [6] is T2, human BCMA on Flp-inCHO-human BCMA cells. Briefly: FACS, Flp-inCHO-human BCMA cells. This is another data set of the same source.

T1 sequence (P07766 23-207, chain 1 of 2): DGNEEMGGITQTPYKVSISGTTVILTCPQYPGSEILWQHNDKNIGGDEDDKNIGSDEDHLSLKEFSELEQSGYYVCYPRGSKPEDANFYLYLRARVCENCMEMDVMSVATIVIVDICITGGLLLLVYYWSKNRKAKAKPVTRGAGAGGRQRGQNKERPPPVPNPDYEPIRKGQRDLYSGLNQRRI
T1 sequence (P04234 22-171, chain 2 of 2): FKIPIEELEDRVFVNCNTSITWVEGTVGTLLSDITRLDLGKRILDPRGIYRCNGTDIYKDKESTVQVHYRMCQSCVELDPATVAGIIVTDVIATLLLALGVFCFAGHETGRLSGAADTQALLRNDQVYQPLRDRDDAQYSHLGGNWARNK
T4 sequence (Q9NZD1 whole entry): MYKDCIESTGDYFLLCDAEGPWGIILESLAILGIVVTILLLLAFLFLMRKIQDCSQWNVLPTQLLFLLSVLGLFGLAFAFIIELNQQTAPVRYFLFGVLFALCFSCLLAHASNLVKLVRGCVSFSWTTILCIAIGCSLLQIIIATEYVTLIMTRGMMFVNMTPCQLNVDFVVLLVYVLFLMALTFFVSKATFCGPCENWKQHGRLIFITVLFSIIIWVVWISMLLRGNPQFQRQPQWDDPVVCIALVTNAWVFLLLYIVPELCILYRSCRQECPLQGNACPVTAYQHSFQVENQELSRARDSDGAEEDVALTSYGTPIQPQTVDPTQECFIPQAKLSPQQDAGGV

B1: Tri-49 (trispecific antibody, V domains shown)
VHH: EVQLVESGGGLVQPGGSLRLSCAASESISSIHIMAWYRQAPGKQRELVAGIRNDGSTVYVDSVKGRFTISRDNAKNSLYLQMNSLRAEDTAVYYCNADQGFGSYSEWERRSRWGQGTTVTVSS
VH 1: EVQLVQSGAEVKKPGSSVKVSCKASGYTFTSYGISWVRQAPGQGLEWMGEIYPRSGNTYYNEKFKGRVTLTADKSTSTAYMELSSLRSEDTAVYYCARGRAYGRNYPMDYWGQGTTVTVSS
VL 1: EIVLTQSPATLSLSPGERATLSCRASQSIGTSIHWYQQKPGQSPRLLIKYASESISGIPARFSGSGSGTDFTLTISSLEPEDFAVYYCQQSNSWPYTFGGGTKVEIK
VH 2: EVQLVESGGGVVQPGRSLRLSCAASGFTFTDYYMSWVRQAPGKGLEWVAMSRNKAKGHTIEYSSSVKGRFTISRDNSKNTLYLQMNSLRAEDTAVYYCARDTYESYDGYFDVWGQGTTVTVSS
VL 2: DIVMTQSPDSLAVSLGERATINCKSSQSLFNSRSRKNYLAWYQQKPGQTPKLLIYWASIRESGVPDRFSGSGSGTDFTLTISSLQAEDVAVYYCKQSYYLYTFGQGTKLEIK
B1: the EC50 in experiment [1] is 157 nM; in experiment [2], 1.34 nM; in experiment [3] it was 31.8 nM; in experiment [4], 59.4 nM; in experiment [5], 2.75 nM. Moreover, the “Maximum mean fluorescence intensity” value in experiment [1] stood at 795; in experiment [3], 1730; in experiment [4] it was 1380.

B2: REGN5459-anti-BCMA-hIgG1 (antibody, V domains shown)
VH: EVQLVESGGGLVQPGGSLRLSCAASGFTFSNFWMTWVRQAPGKGLEWVANMNQDGSEKYYVDSVKGRFTISRDNAKSSLYLQMNSLRAEDTAVYYCARDREYCISTSCYDDFDYWGQGTLVTVSS
VL: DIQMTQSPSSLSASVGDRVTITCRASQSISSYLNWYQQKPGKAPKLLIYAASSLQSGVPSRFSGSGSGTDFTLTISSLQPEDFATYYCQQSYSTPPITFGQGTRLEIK
In the case of B2, in experiment [6], the binding result is given as “binds”.
